{"source": "paper PMC7337490", "biological_target": "survivin;borealin 10-109;INCENP 1-80 (CPI80) (human;human;human) (UniProt O15392+Q53HL2+Q9NQS7)", "sequence (O15392 whole entry, chain 1 of 3)": "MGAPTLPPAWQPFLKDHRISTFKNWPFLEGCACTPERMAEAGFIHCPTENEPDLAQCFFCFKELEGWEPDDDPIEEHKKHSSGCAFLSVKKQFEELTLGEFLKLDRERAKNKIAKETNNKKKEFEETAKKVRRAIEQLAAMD", "sequence (Q53HL2 10-109, chain 2 of 3)": "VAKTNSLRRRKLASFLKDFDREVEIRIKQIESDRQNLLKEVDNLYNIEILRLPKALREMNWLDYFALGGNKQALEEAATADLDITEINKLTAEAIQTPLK", "sequence (Q9NQS7 1-80, chain 3 of 3)": "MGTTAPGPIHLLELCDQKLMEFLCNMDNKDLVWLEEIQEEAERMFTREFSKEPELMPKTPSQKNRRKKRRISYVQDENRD", "assay": "EMSA", "details": "shift between 2 and 3 uM protein; 100 mM NaCl, 20 mM Tris-HCl pH 7.4, 1 mM DTT, 2 h on ice; MST 0.04 uM duplex, 0.1-200 uM protein; EMSA 0.15 pmol plasmid in 20 ul, 0.8% agarose", "data": [{"substance": "BamHI-linearized pBluescript (2.9 kb)", "values": [{"measurement": "K half", "result": 3000, "unit": "nM"}]}]}
